Target: integrin αvβ3 on activated rat hepatic stellate cells (HSC) (rat, UniProt Q8R2H2 26-787)
Experiment: cell-based or functional assay

Sequence of integrin αvβ3 on activated rat hepatic stellate cells (HSC) (Q8R2H2 26-787): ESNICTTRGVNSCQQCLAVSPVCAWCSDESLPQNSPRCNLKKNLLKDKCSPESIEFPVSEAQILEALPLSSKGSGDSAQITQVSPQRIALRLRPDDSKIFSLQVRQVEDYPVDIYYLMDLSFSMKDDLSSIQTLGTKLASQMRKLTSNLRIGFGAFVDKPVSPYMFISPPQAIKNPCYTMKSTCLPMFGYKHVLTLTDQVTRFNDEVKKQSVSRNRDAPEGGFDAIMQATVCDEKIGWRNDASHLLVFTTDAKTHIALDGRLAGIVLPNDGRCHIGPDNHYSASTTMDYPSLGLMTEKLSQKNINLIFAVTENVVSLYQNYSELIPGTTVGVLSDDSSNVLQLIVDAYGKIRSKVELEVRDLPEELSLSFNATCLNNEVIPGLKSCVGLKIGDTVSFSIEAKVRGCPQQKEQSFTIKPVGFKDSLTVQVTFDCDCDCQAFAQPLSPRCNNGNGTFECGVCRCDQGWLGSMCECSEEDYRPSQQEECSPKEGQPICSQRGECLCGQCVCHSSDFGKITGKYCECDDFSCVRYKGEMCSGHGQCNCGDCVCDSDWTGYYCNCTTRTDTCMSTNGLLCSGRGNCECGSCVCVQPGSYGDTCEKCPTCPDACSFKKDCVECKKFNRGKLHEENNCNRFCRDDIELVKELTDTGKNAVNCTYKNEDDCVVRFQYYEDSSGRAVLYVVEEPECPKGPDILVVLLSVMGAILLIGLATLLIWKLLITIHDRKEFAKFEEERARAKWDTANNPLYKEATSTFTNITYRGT

HSC adhesion, level relative to wild-type CTGF4 [%] | Binder
33 | CTGF4 mutant M1 (I257A, R258A, T259A, P260A) (ligand) EENIKKGKKCAAAAKISKPIKFELSGCTSMKTYRAKFCGVCTDGRCCTPHRTTTLPVEFKCPDGEVMKKNMMFIKTCACHYNCPGDNDIFESLYYRKMYGDMA
46 | CTGF4 mutant M4 (E269A, L270A, S271A, G272A) (ligand) EENIKKGKKCIRTPKISKPIKFAAAACTSMKTYRAKFCGVCTDGRCCTPHRTTTLPVEFKCPDGEVMKKNMMFIKTCACHYNCPGDNDIFESLYYRKMYGDMA
80 | CTGF4 mutant M3 (P265A, I266A, K267A, F268A) (ligand) EENIKKGKKCIRTPKISKAAAAELSGCTSMKTYRAKFCGVCTDGRCCTPHRTTTLPVEFKCPDGEVMKKNMMFIKTCACHYNCPGDNDIFESLYYRKMYGDMA

Reference: US20050153395A1 (CHILDREN S HOSPITAL, published 2005)
